Data taken from patent US20190365916A1 (Bayer, published 2019).
Where two headings read alike, the source gives them in different places.

How the values were obtained:
[1] = target: T1, receptor protein CXCR5 (CD185) (human, UniProt P32302 1-372); experiment: cell-based or functional assay
T1 sequence: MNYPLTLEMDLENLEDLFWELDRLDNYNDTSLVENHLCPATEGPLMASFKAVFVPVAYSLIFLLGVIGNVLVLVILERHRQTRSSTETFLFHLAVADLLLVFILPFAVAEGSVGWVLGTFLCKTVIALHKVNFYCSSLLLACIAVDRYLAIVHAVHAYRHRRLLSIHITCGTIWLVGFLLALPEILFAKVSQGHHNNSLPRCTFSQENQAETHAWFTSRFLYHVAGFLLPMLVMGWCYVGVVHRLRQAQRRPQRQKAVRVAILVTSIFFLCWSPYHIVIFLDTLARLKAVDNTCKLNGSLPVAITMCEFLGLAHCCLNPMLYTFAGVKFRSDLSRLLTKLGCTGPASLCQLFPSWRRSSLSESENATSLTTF

[2] = target: T1, receptor protein CXCR5 (CD185); experiment: cell-based or functional assay; remark: listed apart in the source
[3] = target: T1, receptor protein CXCR5 (CD185); experiment: cell binding assay, CypHer 5E-labelled against unlabelled antibody
[4] = target: T2, surface receptor CD123 (IL3RA) (human, UniProt P26951 19-378); experiment: cell-based or functional assay
[5] = target: T2, surface receptor CD123 (IL3RA); experiment: cell binding assay, CypHer 5E-labelled against unlabelled antibody
[6] = target: T2, surface receptor CD123 (IL3RA); experiment: cell-based or functional assay; remark: listed apart in the source

T2 sequence (P26951 19-378 limits assumed): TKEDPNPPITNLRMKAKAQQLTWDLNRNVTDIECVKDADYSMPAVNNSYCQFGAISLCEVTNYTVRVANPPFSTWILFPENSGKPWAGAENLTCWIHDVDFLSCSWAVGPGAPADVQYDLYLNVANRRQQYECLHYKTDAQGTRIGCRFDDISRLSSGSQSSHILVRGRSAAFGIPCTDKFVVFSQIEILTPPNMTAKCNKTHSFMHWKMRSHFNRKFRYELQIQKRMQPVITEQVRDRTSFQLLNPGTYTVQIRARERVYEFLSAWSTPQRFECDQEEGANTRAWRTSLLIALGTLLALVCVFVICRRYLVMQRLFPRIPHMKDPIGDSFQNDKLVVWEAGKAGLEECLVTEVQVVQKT

B1: reference ADC R1x-9574 (anti-CXCR5 TPP-9574 coupled with Intermediate F104) (antibody, human IgG1, kappa, V domains shown)
VH: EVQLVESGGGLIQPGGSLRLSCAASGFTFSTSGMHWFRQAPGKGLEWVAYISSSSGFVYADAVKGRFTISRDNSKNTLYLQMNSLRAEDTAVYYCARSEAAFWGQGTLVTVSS
VL: DIVMTQSPLSLPVTPGEPASISCRSQKSRLSRMGITPLNWYLQKPGQSPQLLIYRMSNLASGVPDRFSGSGSGTDFTLKISRVEAEDVGVYYCAQFLEYPPTFGQGTKLEIKR
modifications: reference KSP inhibitor toxophore-linker (from Intermediate F104) on sulfur atoms of cysteine side chains of the partially reduced antibody; DAR 3.9; positions not given
IC50 [M] of growth inhibition, MTT assay, Rec-1 cells (CXCR5-positive) [1]: 2.62e-10 M

B2: reference ADC R1x-9580 (anti-CXCR5 TPP-9580 coupled with Intermediate F104) (antibody, human IgG1, kappa, V domains shown)
VH: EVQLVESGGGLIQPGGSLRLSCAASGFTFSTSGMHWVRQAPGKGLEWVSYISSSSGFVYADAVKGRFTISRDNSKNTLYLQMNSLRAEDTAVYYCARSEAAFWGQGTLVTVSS
VL: DIVMTQSPLSLPVTPGEPASISCRSQKSRLSRMGITPLNWYLQKPGQSPQLLIYRMSNLASGVPDRFSGSGSGTDFTLKISRVEAEDVGVYYCAQFLEYPPTFGQGTKLEIKR
modifications: reference KSP inhibitor toxophore-linker (from Intermediate F104) on sulfur atoms of cysteine side chains of the partially reduced antibody; DAR 3.7; positions not given
IC50 [M] of growth inhibition, MTT assay, Rec-1 cells (CXCR5-positive) [1]: 7.16e-11 M

B3: ADC Example 1x-9580 (anti-CXCR5 TPP-9580 coupled with Intermediate F325) (antibody, human IgG1, kappa, V domains shown)
VH: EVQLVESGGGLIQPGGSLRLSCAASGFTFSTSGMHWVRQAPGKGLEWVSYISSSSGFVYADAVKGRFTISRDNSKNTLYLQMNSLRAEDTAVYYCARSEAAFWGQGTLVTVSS
VL: DIVMTQSPLSLPVTPGEPASISCRSQKSRLSRMGITPLNWYLQKPGQSPQLLIYRMSNLASGVPDRFSGSGSGTDFTLKISRVEAEDVGVYYCAQFLEYPPTFGQGTKLEIKR
modifications: KSP inhibitor toxophore-linker of formula (I) (from Intermediate F325) on sulfur atoms of cysteine side chains of the partially reduced antibody; DAR 4.2; positions not given
IC50 [M] of growth inhibition, MTT assay, Rec-1 cells (CXCR5-positive) [2]: 2.78e-09 M

B4: ADC Example 1x-9574 (anti-CXCR5 TPP-9574 coupled with Intermediate F325) (antibody, human IgG1, kappa, V domains shown)
VH: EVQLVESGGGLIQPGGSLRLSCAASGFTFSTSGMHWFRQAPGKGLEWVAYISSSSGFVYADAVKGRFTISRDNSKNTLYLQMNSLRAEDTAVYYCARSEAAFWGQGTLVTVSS
VL: DIVMTQSPLSLPVTPGEPASISCRSQKSRLSRMGITPLNWYLQKPGQSPQLLIYRMSNLASGVPDRFSGSGSGTDFTLKISRVEAEDVGVYYCAQFLEYPPTFGQGTKLEIKR
modifications: KSP inhibitor toxophore-linker of formula (I) (from Intermediate F325) on sulfur atoms of cysteine side chains of the partially reduced antibody; DAR 4.1; positions not given
IC50 [M] of growth inhibition, MTT assay, Rec-1 cells (CXCR5-positive) [2]: 2.94e-11 M

B5: anti-CXCR5 antibody TPP-9574 (antibody, human IgG1, kappa, V domains shown)
VH: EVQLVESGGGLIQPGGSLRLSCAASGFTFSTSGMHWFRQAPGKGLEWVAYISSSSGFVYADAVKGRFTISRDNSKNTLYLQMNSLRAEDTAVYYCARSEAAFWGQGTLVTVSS
VL: DIVMTQSPLSLPVTPGEPASISCRSQKSRLSRMGITPLNWYLQKPGQSPQLLIYRMSNLASGVPDRFSGSGSGTDFTLKISRVEAEDVGVYYCAQFLEYPPTFGQGTKLEIKR
notes: Humanized anti-CXCR5 IgG; In the internalization assays it carried CypHer 5E dye on lysines
binding result [3]: binds

B6: anti-CXCR5 antibody TPP-9580 (antibody, human IgG1, kappa, V domains shown)
VH: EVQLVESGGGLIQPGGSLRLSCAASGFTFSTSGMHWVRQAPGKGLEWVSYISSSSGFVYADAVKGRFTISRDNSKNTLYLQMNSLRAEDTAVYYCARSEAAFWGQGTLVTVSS
VL: DIVMTQSPLSLPVTPGEPASISCRSQKSRLSRMGITPLNWYLQKPGQSPQLLIYRMSNLASGVPDRFSGSGSGTDFTLKISRVEAEDVGVYYCAQFLEYPPTFGQGTKLEIKR
notes: as for B5
binding result [3]: binds

B7: reference ADC R1c-8988 (anti-CD123 TPP-8988 coupled with Intermediate F104) (antibody, human IgG1, kappa, V domains shown)
VH: EVQLLESGGGLVQPGGSLRLSCAVSDYSITSGYYWNWIRQAPGKKLEWMGYISYDGSNNYNPSLKNGRITISRDTSKNTFYLQMNSLRAEDTAVYYCARGEGFYFDSWGQGTLVTVSS
VL: EIVLTQSPGTLSLSPGERATLSCKSSQSLFFGSTQKNYLAWYQQKPGQAPRLLIYWASTRESGIPDRFSGSGSGTDFTLTISRLEPEDFAVYYCQQYYNYPWTFGQGTKLEIKR
modifications: reference KSP inhibitor toxophore-linker (from Intermediate F104) on sulfur atoms of cysteine side chains of the partially reduced antibody; DAR 3.4; positions not given
IC50 [M] of growth inhibition, MTT assay, MOLM-13 cells (CD123-positive) [4]: 4.26e-09 M | IC50 [M] of growth inhibition, MTT assay, MV-4-11 cells (CD123-positive) [4]: 3.27e-08 M

B8: anti-CD123 antibody TPP-8988 (antibody, human IgG1, kappa, V domains shown)
VH: EVQLLESGGGLVQPGGSLRLSCAVSDYSITSGYYWNWIRQAPGKKLEWMGYISYDGSNNYNPSLKNGRITISRDTSKNTFYLQMNSLRAEDTAVYYCARGEGFYFDSWGQGTLVTVSS
VL: EIVLTQSPGTLSLSPGERATLSCKSSQSLFFGSTQKNYLAWYQQKPGQAPRLLIYWASTRESGIPDRFSGSGSGTDFTLTISRLEPEDFAVYYCQQYYNYPWTFGQGTKLEIKR
notes: Humanized anti-CD123 IgG; In the internalization assays it carried CypHer 5E dye on lysines
binding result [5]: binds

B9: ADC Example 1c-8988 (anti-CD123 TPP-8988 coupled with Intermediate F325) (antibody, human IgG1, kappa, V domains shown)
VH: EVQLLESGGGLVQPGGSLRLSCAVSDYSITSGYYWNWIRQAPGKKLEWMGYISYDGSNNYNPSLKNGRITISRDTSKNTFYLQMNSLRAEDTAVYYCARGEGFYFDSWGQGTLVTVSS
VL: EIVLTQSPGTLSLSPGERATLSCKSSQSLFFGSTQKNYLAWYQQKPGQAPRLLIYWASTRESGIPDRFSGSGSGTDFTLTISRLEPEDFAVYYCQQYYNYPWTFGQGTKLEIKR
modifications: KSP inhibitor toxophore-linker of formula (I) (from Intermediate F325) on sulfur atoms of cysteine side chains of the partially reduced antibody; DAR 3.5; positions not given
IC50 [M] of growth inhibition, MTT assay, MOLM-13 cells (CD123-positive) [6]: 3.02e-11 M | IC50 [M] of growth inhibition, MTT assay, MV-4-11 cells (CD123-positive) [6]: 2.94e-08 M
